Experimental data published in the supplement of paper PMC10201428.
± gives the standard deviation of the averaged measurements.

Assays:
[1] = test system: VchCAST RNA-guided transposition machinery (E. coli BL21(DE3) host, lacZ target); assay: relative integration efficiency (T-RL orientation) vs wild-type transposon end (log2 (normalized fold change)); transposon end mutated: right end (5 bp flank + 75 bp right end); higher = more efficient transposition
Method in brief: (§1)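 Barcode abundances in input plasmids and in genomic integration junctions were obtained by PCR amplification and Illumina sequencing. These came from E. coli BL21(DE3) co-transformed with a T7-driven effector plasmid and a pUC57 donor carrying 1549 left-end or 1849 right-end transposon variants, then plated with 0.1 mM IPTG at 37°C for 18 h. Relative integration efficiency is the output/input fold change, normalised to reference barcodes and log-transformed.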

[2] = test system: VchCAST RNA-guided transposition machinery (E. coli BL21(DE3) host, lacZ target); assay: relative integration efficiency (T-LR orientation) vs wild-type transposon end (log2 (normalized fold change)); transposon end mutated: right end (5 bp flank + 75 bp right end); higher = more efficient transposition
Method in brief: as §1

ACATTTGTTGATACAACCATAAAATGATAATTAATAATTATTTATAATCCACCCATAAATTGATAATTATCAACAAACGCCCGGTCGCGGTACTCTGATCATAGTCAGACCAACATTGCTACGACCC
relative integration efficiency (log2) [1]: -2.37 ± 0.16 | relative integration efficiency (log2) [2]: 1.24 ± 0.42

ACATTTGTTGATACCACCATAAAATGGTAATTACACCCCTAAATTGATAATTATCACACCCAATTTAACTATAACGCTCTGATCATAGTCAGACCAACATTGCTACGACCCGTATTCGCACCGACAC
relative integration efficiency (log2) [1]: -3.42 ± 0.33 | relative integration efficiency (log2) [2]: -0.273 ± 0.24

ACATTTGTTGATACAACCATAAAAAGATAATTACACCCATAAATTGATAATAATGACACCGAATTTAACTATAACGCTCTGATCATAGTCAGACCAACATTGCTACGACCCGTATTCGCACCGACAC
relative integration efficiency (log2) [1]: -1 ± 0.49 | relative integration efficiency (log2) [2]: 2.514 ± 0.018

ACATTTGTTGATACAACCATAAAATGATAATGCACAAACGCCCGGTCGCCGGCGACACAAACGCCCGGTCGCGGTAAGAGGATCATAGTCAGACCAACATTGCTACGACCCGTATTCGCACCGACAC
relative integration efficiency (log2) [1]: -2.15 ± 0.043 | relative integration efficiency (log2) [2]: 1.04 ± 0.18

ACATTTGTTGATACAACCATAAAATGATAATTACACCCATAAATTGATAATTATCCACACCATAAATTGATATTGCCTCTGATCATAGTCAGACCAACATTGCTACGACCCGTATTCGCACCGACAC
relative integration efficiency (log2) [1]: -0.495 ± 0.13 | relative integration efficiency (log2) [2]: 0.485 ± 0.4

ACATTTGTTGATACAACCATAAGTTGATATTTTCACCCATAAATTGATATTGCTCACAACCATATATTGATATCTCCTCTGATCATAGTCAGACCAACATTGCTACGACCCGTATTCGCACCGACAC
relative integration efficiency (log2) [1]: -0.904 ± 0.14 | relative integration efficiency (log2) [2]: 0.0122 ± 0.21

ACATTTGTTGATACCACCATAAAATGATAATTCCACCCATACATTGATAATTATCACACCCAATTTAACTATAACGCTCTGATCATAGTCAGACCAACATTGCTACGACCCGTATTCGCACCGACAC
relative integration efficiency (log2) [1]: -2.81 ± 0.42 | relative integration efficiency (log2) [2]: 0.789 ± 0.33

ACATTTGTTGATACAACCATTAAATGGTAATTCCACCCATATATTGATAATTATCACACCCAATTTAACTATAACGCTCTGATCATAGTCAGACCAACATTGCTACGACCCGTATTCGCACCGACAC
relative integration efficiency (log2) [1]: -1.52 ± 0.24 | relative integration efficiency (log2) [2]: 1.37 ± 0.13

ACATTTGTTGATACAACCATAAAATGATAATTAATCACCCATAAATTGATAATTATCAACAAACGCCCGGTCGCGGTACTCTGATCATAGTCAGACCAACATTGCTACGACCCGTATTCGCACCGAC
relative integration efficiency (log2) [1]: -1.83 ± 0.42 | relative integration efficiency (log2) [2]: 1.09 ± 0.077

ACATTTGTTGATACAACCATAAAAGGATAATTACCCCCATAAATTGATAATTATCACACCCAATTTAACTATAACGCTCTGATCATAGTCAGACCAACATTGCTACGACCCGTATTCGCACCGACAC
relative integration efficiency (log2) [1]: -1.55 ± 0.26 | relative integration efficiency (log2) [2]: 1.37 ± 0.093

ACATTTGTTGATACAACCATAAAGTGATATTTACAACCATAAAATGATAATTATCACAACCATAAAATGATAATTACTCTGATCATAGTCAGACCAACATTGCTACGACCCGTATTCGCACCGACAC
relative integration efficiency (log2) [1]: 0.174 ± 0.1 | relative integration efficiency (log2) [2]: 0.0497 ± 0.074

ACATTGGTGGATACAACCATAAAATGATAATTACACCCATAAATGGATCATTATCACACCCAATTTAACTATAACGCTCTGATCATAGTCAGACCAACATTGCTACGACCCGTATTCGCACCGACAC
relative integration efficiency (log2) [1]: -7.25 ± 0.2 | relative integration efficiency (log2) [2]: -6.75 ± 1

ACATTTGTTGATACAACCATAAAATGATAATTACACCCATAAATTGATAATTATCACACCCATAAATTGATATTGAAGAGGATCATAGTCAGACCAACATTGCTACGACCCGTATTCGCACCGACAC
relative integration efficiency (log2) [1]: -0.00509 ± 0.15 | relative integration efficiency (log2) [2]: -0.000932 ± 0.33

ACATTTCTTCATACAACCATAAAATGATAATTACACCCATAAATTCATCATTATCACACCCAATTTAACTATAACGCTCTGATCATAGTCAGACCAACATTGCTACGACCCGTATTCGCACCGACAC
relative integration efficiency (log2) [1]: -4.8 ± 0.27 | relative integration efficiency (log2) [2]: -3.38 ± 0.49

ACATTTGTTGATACAACCATAAGTTGATATTTTCACCCATAAATTGATATTGCTCACAACCATAAAATGATAATTACTCTGATCATAGTCAGACCAACATTGCTACGACCCGTATTCGCACCGACAC
relative integration efficiency (log2) [1]: -0.631 ± 0.13 | relative integration efficiency (log2) [2]: -0.0881 ± 0.35

ACATTTGTTGATACAACCATTAAATGATAATTCCACCCATATATTGATAATTATCACACCCAATTTAACTATAACGCTCTGATCATAGTCAGACCAACATTGCTACGACCCGTATTCGCACCGACAC
relative integration efficiency (log2) [1]: -1.24 ± 0.15 | relative integration efficiency (log2) [2]: 2.16 ± 0.074

ACATTTGTGGATACAACCCTAAAATGATAATTACACCCATAAATGGATAATTATCACACCCAATTTAACTATAACGCTCTGATCATAGTCAGACCAACATTGCTACGACCCGTATTCGCACCGACAC
relative integration efficiency (log2) [1]: -3.64 ± 0.39 | relative integration efficiency (log2) [2]: -0.593 ± 0.47

ACATTTGTTGATACAACCATAAAGTGATATTTACAACCATAAAATGATAATTATCACACCCATAAATTGATATTGCCTCTGATCATAGTCAGACCAACATTGCTACGACCCGTATTCGCACCGACAC
relative integration efficiency (log2) [1]: -0.00564 ± 0.04 | relative integration efficiency (log2) [2]: -0.097 ± 0.68
